Test results taken from US20170306033A1 (Amgen, published 2017).

T1: human PAC1 receptor (human, UniProt P41586 21-468)
T1 sequence: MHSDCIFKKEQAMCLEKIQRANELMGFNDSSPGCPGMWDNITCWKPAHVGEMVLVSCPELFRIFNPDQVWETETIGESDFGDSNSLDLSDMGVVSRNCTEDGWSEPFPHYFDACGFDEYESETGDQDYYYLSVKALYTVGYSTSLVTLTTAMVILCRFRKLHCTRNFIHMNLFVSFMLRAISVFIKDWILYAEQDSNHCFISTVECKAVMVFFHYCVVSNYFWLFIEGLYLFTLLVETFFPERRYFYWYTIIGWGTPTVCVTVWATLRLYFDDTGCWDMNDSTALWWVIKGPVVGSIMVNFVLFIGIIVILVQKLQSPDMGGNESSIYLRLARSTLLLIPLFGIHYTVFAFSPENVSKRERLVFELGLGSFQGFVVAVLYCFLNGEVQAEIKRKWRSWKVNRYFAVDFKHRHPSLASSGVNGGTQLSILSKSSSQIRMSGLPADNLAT


Key:
[1] = molecular target: human CGRP receptor (human, UniProt Q16602 23-461; O60894 27-148); experiment: cell-based or functional assay
human CGRP receptor, sequence (Q16602 23-461 limits assumed, chain 1 of 2): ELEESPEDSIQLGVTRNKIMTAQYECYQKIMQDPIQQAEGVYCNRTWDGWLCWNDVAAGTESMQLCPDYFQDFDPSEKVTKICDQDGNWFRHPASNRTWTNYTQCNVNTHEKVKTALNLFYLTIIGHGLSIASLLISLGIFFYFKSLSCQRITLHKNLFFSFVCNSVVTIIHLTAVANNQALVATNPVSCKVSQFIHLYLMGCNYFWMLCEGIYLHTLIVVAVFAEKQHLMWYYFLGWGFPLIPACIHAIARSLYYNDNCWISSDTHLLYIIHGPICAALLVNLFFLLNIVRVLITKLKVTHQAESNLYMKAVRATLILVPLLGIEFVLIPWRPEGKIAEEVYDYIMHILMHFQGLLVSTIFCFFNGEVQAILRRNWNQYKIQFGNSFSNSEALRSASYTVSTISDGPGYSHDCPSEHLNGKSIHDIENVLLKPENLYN
human CGRP receptor, sequence (O60894 27-148 limits assumed, chain 2 of 2): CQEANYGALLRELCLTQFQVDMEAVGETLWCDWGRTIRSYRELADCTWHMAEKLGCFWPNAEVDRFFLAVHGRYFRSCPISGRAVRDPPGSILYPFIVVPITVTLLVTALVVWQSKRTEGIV

[2] = molecular target: T1, human PAC1 receptor; experiment: cell-based or functional assay

| Binder | Human CGRP Receptor IC50 [1] | Human PAC1 Receptor IC50 [2] |
| --- | --- | --- |
| iPS:386725 (bispecific antibody, human IgG1, lambda, N297G) light: QSVLTQPPSVSAAPGQKVTISCSGSSSNIGNNYVSWYQQLPGTAPKLLIYDNNKRPSGIPDRFSGSKSGTSTTLGITGLQTGDEADYYCGTWDSRLSAVVFGGGTKLTVLGQPKANPTVTLFPPSSEELQANKATLVCLISDFYPGAVTVAWKADGSPVKAGVETTKPSKQSNNKYAASSYLSLTPEQWKSHRSYSCQVTHEGSTVEKTVAPTECS heavy: not shown | 0.42 nM | 549 nM |
| iPS:386731 (bispecific antibody, human IgG1, lambda, N297G) light: QSVLTQPPSVSAAPGQKVTISCSGSSSNIGNNYVSWYQQLPGTAPKLLIYDNNKRPSGIPDRFSGSKSGTSTTLGITGLQTGDEADYYCGTWDSRLSAVVFGGGTKLTVLGQPKANPTVTLFPPSSEELQANKATLVCLISDFYPGAVTVAWKADGSPVKAGVETTKPSKQSNNKYAASSYLSLTPEQWKSHRSYSCQVTHEGSTVEKTVAPTECS heavy: not shown | 0.4 nM | 347 nM |
| iPS:386727 (bispecific antibody, human IgG1, lambda, N297G) light: QSVLTQPPSVSAAPGQKVTISCSGSSSNIGNNYVSWYQQLPGTAPKLLIYDNNKRPSGIPDRFSGSKSGTSATLGITGLQTGDEADYYCGTWDSRLSAVVFGGGTKLTVLGQPKANPTVTLFPPSSEELQANKATLVCLISDFYPGAVTVAWKADGSPVKAGVETTKPSKQSNNKYAASSYLSLTPEQWKSHRSYSCQVTHEGSTVEKTVAPTECS heavy: not shown | 0.72 nM | 371 nM |
| iPS:386729 (bispecific antibody, human IgG1, lambda, N297G) light: QSVLTQPPSVSAAPGQKVTISCSGSSSNIGNNYVSWYQQLPGTAPKLLIYDNNKRPSGIPDRFSGSKSGTSATLAITGLQTGDEADYYCGTWDSRLSAVVFGGGTKLTVLGQPKANPTVTLFPPSSEELQANKATLVCLISDFYPGAVTVAWKADGSPVKAGVETTKPSKQSNNKYAASSYLSLTPEQWKSHRSYSCQVTHEGSTVEKTVAPTECS heavy: not shown | 0.47 nM | 565 nM |
| iPS:386733 (bispecific antibody, human IgG1, lambda, N297G) light: QSVLTQPPSVSAAPGQKVTISCSGSSSNIGNNYVSWYQQLPGTAPKLLIYDNNKRPSGIPDRFSGSKSGTSATLAITGLQTGDEADYYCGTWDSRLSAVVFGGGTKLTVLGQPKANPTVTLFPPSSEELQANKATLVCLISDFYPGAVTVAWKADGSPVKAGVETTKPSKQSNNKYAASSYLSLTPEQWKSHRSYSCQVTHEGSTVEKTVAPTECS heavy: not shown | 0.34 nM | 74.3 nM |
| iPS:386736 (bispecific antibody, human IgG1, kappa, N297G) light: DIQLTQSPSFLSASVGDRVTITCRASQSIGRSLHWYQQKPGKAPKLLIKYASQSLSGVPSRFSGSGSGTEFTLTISSLQPEDFATYYCHQSSRLPFTFGPGTKVDIKRTVAAPSVFIFPPSDEQLKSGTASVVCLLNNFYPREAKVQWKVDNALQSGNSQESVTEQDSKDSTYSLSSTLTLSKADYEKHKVYACEVTHQGLSSPVTKSFNRGEC heavy: not shown | 0.9 nM | 5.43 nM |
| iPS:386744 (bispecific antibody, human IgG1, kappa, N297G) light: DIQLTQSPSFLSASVGDRVTITCRASQSIGRSLHWYQQKPGKAPKLLIKYASQSLSGVPSRFSGSGSGTEFTLTISSLQPEDFATYYCHQSSRLPFTFGPGTKVDIKRTVAAPSVFIFPPSDEQLKSGTASVVCLLNNFYPREAKVQWKVDNALQSGNSQESVTEQDSKDSTYSLSSTLTLSKADYEKHKVYACEVTHQGLSSPVTKSFNRGEC heavy: not shown | 0.61 nM | 3.63 nM |
| iPS:386746 (bispecific antibody, human IgG1, kappa, N297G) light: DIQLTQSPSFLSASVGDRVTITCRASQSIGRSLHWYQQKPGKAPKLLIKYASQSLSGVPSRFSGSGSGTEFTLTISSLQPEDFATYYCHQSSRLPFTFGPGTKVDIKRTVAAPSVFIFPPSDEQLKSGTASVVCLLNNFYPREAKVQWKVDNALQSGNSQESVTEQDSKDSTYSLSSTLTLSKADYEKHKVYACEVTHQGLSSPVTKSFNRGEC heavy: not shown | 0.79 nM | 3.28 nM |
| iPS:386738 (bispecific antibody, human IgG1, kappa, N297G) light: DIQLTQSPSFLSASVGDRVTITCRASQSIGRSLHWYQQKPGKAPKLLIKYASQSLSGVPSRFSGSGSGTEFTLTISSLQPEDFATYYCHQSSRLPFTFGPGTKVDIKRTVAAPSVFIFPPSDEQLKSGTASVVCLLNNFYPREAKVQWKVDNALQSGNSQESVTEQDSKDSTYSLSSTLTLSKADYEKHKVYACEVTHQGLSSPVTKSFNRGEC heavy: not shown | 0.74 nM | 5.09 nM |
| iPS:386742 (bispecific antibody, human IgG1, kappa, N297G) light: DIQLTQSPSFLSASVGDRVTITCRASQSIGRSLHWYQQKPGKAPKLLIKYASQSLSGVPSRFSGSGSGTEFTLTISSLQPEDFATYYCHQSSRLPFTFGPGTKVDIKRTVAAPSVFIFPPSDEQLKSGTASVVCLLNNFYPREAKVQWKVDNALQSGNSQESVTEQDSKDSTYSLSSTLTLSKADYEKHKVYACEVTHQGLSSPVTKSFNRGEC heavy: not shown | 0.61 nM | 6.39 nM |
| iPS:386748 (bispecific antibody, human IgG1, kappa, N297G) light: DIQLTQSPSFLSASVGDRVTITCRASQSIGRSLHWYQQKPGKAPKLLIKYASQSLSGVPSRFSGSGSGTEFTLTISSLQPEDFATYYCHQSSRLPFTFGPGTKVDIKRTVAAPSVFIFPPSDEQLKSGTASVVCLLNNFYPREAKVQWKVDNALQSGNSQESVTEQDSKDSTYSLSSTLTLSKADYEKHKVYACEVTHQGLSSPVTKSFNRGEC heavy: not shown | 0.63 nM | 2.85 nM |
| iPS:386740 (bispecific antibody, human IgG1, kappa, N297G) light: DIQLTQSPSFLSASVGDRVTITCRASQSIGRSLHWYQQKPGKAPKLLIKYASQSLSGVPSRFSGSGSGTEFTLTISSLQPEDFATYYCHQSSRLPFTFGPGTKVDIKRTVAAPSVFIFPPSDEQLKSGTASVVCLLNNFYPREAKVQWKVDNALQSGNSQESVTEQDSKDSTYSLSSTLTLSKADYEKHKVYACEVTHQGLSSPVTKSFNRGEC heavy: not shown | 0.56 nM | 4.4 nM |

Continued, values first:

| Human CGRP Receptor IC50 [1] | Human PAC1 Receptor IC50 [2] | Binder |
| --- | --- | --- |
| 2.11 nM | 4.67 nM | iPS:386760 (bispecific antibody, human IgG1, kappa, N297G) light: DIQLTQSPSFLSASVGDRVTITCRASQSIGRSLHWYQQKPGKAPKLLIKYASQSLSGVPSRFSGSGSGTEFTLTISSLQPEDFATYYCHQSSRLPFTFGPGTKVDIKRTVAAPSVFIFPPSDEQLKSGTASVVCLLNNFYPREAKVQWKVDNALQSGNSQESVTEQDSKDSTYSLSSTLTLSKADYEKHKVYACEVTHQGLSSPVTKSFNRGEC heavy: not shown |
| 1.88 nM | 7.29 nM | iPS:386756 (bispecific antibody, human IgG1, kappa, N297G) light: DIQLTQSPSFLSASVGDRVTITCRASQSIGRSLHWYQQKPGKAPKLLIKYASQSLSGVPSRFSGSGSGTEFTLTISSLQPEDFATYYCHQSSRLPFTFGPGTKVDIKRTVAAPSVFIFPPSDEQLKSGTASVVCLLNNFYPREAKVQWKVDNALQSGNSQESVTEQDSKDSTYSLSSTLTLSKADYEKHKVYACEVTHQGLSSPVTKSFNRGEC heavy: not shown |
| 0.54 nM | 5.74 nM | iPS:386754 (bispecific antibody, human IgG1, kappa, N297G) light: DIQLTQSPSFLSASVGDRVTITCRASQSIGRSLHWYQQKPGKAPKLLIKYASQSLSGVPSRFSGSGSGTEFTLTISSLQPEDFATYYCHQSSRLPFTFGPGTKVDIKRTVAAPSVFIFPPSDEQLKSGTASVVCLLNNFYPREAKVQWKVDNALQSGNSQESVTEQDSKDSTYSLSSTLTLSKADYEKHKVYACEVTHQGLSSPVTKSFNRGEC heavy: not shown |
| 2.32 nM | 4.11 nM | iPS:386758 (bispecific antibody, human IgG1, kappa, N297G) light: DIQLTQSPSFLSASVGDRVTITCRASQSIGRSLHWYQQKPGKAPKLLIKYASQSLSGVPSRFSGSGSGTEFTLTISSLQPEDFATYYCHQSSRLPFTFGPGTKVDIKRTVAAPSVFIFPPSDEQLKSGTASVVCLLNNFYPREAKVQWKVDNALQSGNSQESVTEQDSKDSTYSLSSTLTLSKADYEKHKVYACEVTHQGLSSPVTKSFNRGEC heavy: not shown |
| 2.8 nM | 3.55 nM | iPS:386762 (bispecific antibody, human IgG1, kappa, N297G) light: DIQLTQSPSFLSASVGDRVTITCRASQSIGRSLHWYQQKPGKAPKLLIKYASQSLSGVPSRFSGSGSGTEFTLTISSLQPEDFATYYCHQSSRLPFTFGPGTKVDIKRTVAAPSVFIFPPSDEQLKSGTASVVCLLNNFYPREAKVQWKVDNALQSGNSQESVTEQDSKDSTYSLSSTLTLSKADYEKHKVYACEVTHQGLSSPVTKSFNRGEC heavy: not shown |
| 0.62 nM | 6.08 nM | iPS:386752 (bispecific antibody, human IgG1, kappa, N297G) light: DIQLTQSPSFLSASVGDRVTITCRASQSIGRSLHWYQQKPGKAPKLLIKYASQSLSGVPSRFSGSGSGTEFTLTISSLQPEDFATYYCHQSSRLPFTFGPGTKVDIKRTVAAPSVFIFPPSDEQLKSGTASVVCLLNNFYPREAKVQWKVDNALQSGNSQESVTEQDSKDSTYSLSSTLTLSKADYEKHKVYACEVTHQGLSSPVTKSFNRGEC heavy: not shown |
| 0.58 nM | 4.54 nM | iPS:386750 (bispecific antibody, human IgG1, kappa, N297G) light: DIQLTQSPSFLSASVGDRVTITCRASQSIGRSLHWYQQKPGKAPKLLIKYASQSLSGVPSRFSGSGSGTEFTLTISSLQPEDFATYYCHQSSRLPFTFGPGTKVDIKRTVAAPSVFIFPPSDEQLKSGTASVVCLLNNFYPREAKVQWKVDNALQSGNSQESVTEQDSKDSTYSLSSTLTLSKADYEKHKVYACEVTHQGLSSPVTKSFNRGEC heavy: not shown |
